B1: GNAI2 (protein)
chain: GCTVSAEDKAAAERSKMIDKNLREDGEKAAREVKLLLLGAGESGKSTIVKQMKIIHEDGYSEEECRQYRAVVYSNTIQSIMAIVKAMGNLQIDFADPSRADDARQLFALSCTAEEQGVLPDDLSGVIRRLWADHGVQACFGRSREYQLNDSAAYYLNDLERIAQSDYIPTQQDVLRTRVKTTGIVETHFTFKDLHFKMFDVGGQRSERKKWIHCFEGVTAIIFCVALSAYDLVLAEDEEMNRMHESMKLFDSICNNKWFTDTSIILFLNKKDLFEEKITHSPLTICFPEYTGANKYDEAASYIQSKFEDLNKRKDTKEIYTHFTCATDTKNVQFVFDAVTDVIIKNNLKDCGLF
B2: AP2M1 (protein)
chain: MIGGLFIYNHKGEVLISRVYRDDIGSRQAADSAVFSSSGPFPGEWLEANRRNAVDAFRVNVIHARQQVRSPVTNIARTSFFHVKRSNIWLAAVTKQNVNAAMVFEFLYKMCDVMAAYFGKISEENIKNNFVLIYELLDEILDFGYPQNSETGALKTFITQQGIKSQHQTKEEQSQITSQVTGQIGWRREGIKYRRNELFLDVLESVNLLMSPQGQVLSAHVSGRVVMKSYLSGMPECKFGMNDKIVIEKQGKGTADETSKSGKQSIAIDDCTFHQCVRLSKFDSERSISFIPPDGEFELMRYRTTKDIILPFRVIPLVREVGRTKLEVKVVIKSNFKPSLLAQKIEVRIPTPLNTSGVQVICMKGKAKYKASENAIVWKIKRMAGMKESQISAEIELLPTNDKKKWARPPISMNFEVPFAPSGLKVRYLKVFEPKLNYSDHDVIKWVRYIGRSGIYETRC
B3: ATP2B1 (protein)
chain: GDMANNSVAYSGVKNSLKEANHDGDFGITLAELRALMELRSTDALRKIQESYGDVYGICTKLKTSPNEGLSGNPADLERREAVFGKNFIPPKKPKTFLQLVWEALQDVTLIILEIAAIVSLGLSFYQPPEGDNALCGEVSVGEEEGEGETGWIEGAAILLSVVCVVLVTAFNDWSKEKQFRGLQSRIEQEQKFTVIRGGQVIQIPVADITVGDIAQVKYGDLLPADGILIQGNDLKIDESSLTGESDHVKKSLDKDPLLLSGTHVMEGSGRMVVTAVGVNSQTGIIFTLLGAGGEEEEKKDEKKKEKKNKKQDGAIENRNKAKAQDGAAMEMQPLKSEEGGDGDEKDKKKANLPKKEKSVLQGKLTKLAVQIGKAGLLMSAITVIILVLYFVIDTFWVQKRPWLAECTPIYIQYFVKFFIIGVTVLVVAVPEGLPLAVTISLAYSVKKMMKDNNLVRHLDACETMGNATAICSDKTGTLTMNRMTVVQAYINEKHYKKVPEPEAIPPNILSYLVTGISVNCAYTSKILPPEKEGGLPRHVGNKTECALLGLLLDLKRDYQDVRNEIPEEALYKVYTFNSVRKSMSTVLKNSDGSYRIFSKGASEIILKKCFKILSANGEAKVFRPRDRDDIVKTVIEPMASEGLRTICLAFRDFPAGEPEPEWDNENDIVTGLTCIAVVGIEDPVRPEVPDAIKKCQRAGITVRMVTGDNINTARAIATKCGILHPGEDFLCLEGKDFNRRIRNEKGEIEQERIDKIWPKLRVLARSSPTDKHTLVKGIIDSTVSDQRQVVAVTGDGTNDGPALKKADVGFAMGIAGTDVAKEASDIILTDDNFTSIVKAVMWGRNVYDSISKFLQFQLTVNVVAVIVAFTGACITQDSPLKAVQMLWVNLIMDTLASLALATEPPTESLLLRKPYGRNKPLISRTMMKNILGHAFYQLVVVFTLLFAGEKFFDIDSGRNAPLHAPPSEHYTIVFNTFVLMQLFNEINARKIHGERNVFEGIFNNAIFCTIVLGTFVVQIIIVQFGGKPFSCSELSIEQWLWSIFLGMGTLLWGQLISTIPTSRLKFLKEAGHGTQKEEIPEEELAEDVEEIDHAERELRRGQILWFRGLNRIQTQIRVVNAFRSSLYEGLEKPESRSSIHNFMTHPEFRIEDSEPHIPLIDDTDAEDDAPTKRNSSPPPSPNKNNNAVDSGIHLTIEMNKSATSSSPGSPLHSLETSL

System: proteins that co-immunoprecipitated with DUX4-CTD constructs expressed in MB135 myoblasts
Experiment: LC-MS of proteins co-immunoprecipitated with DUX4-CTD (Table 1) and western validation
Type: binding, human
Design: key to 4. mL1dL2 + Dox + IFNG / 4. + IFNG mix / 4. longCTD + Dox + IFNG / 3. + IFNg + Dox longCTD / 3. + Dox longCTD / 3. + IFNG longCTD: peptide-spectrum matches (PSMs) per protein
Conditions: kind of count not given; for 4. + IFNG mix: LC-MS value per protein co-immunoprecipitated from MB135 myoblasts, + IFNG mix sample (no Dox); for 4. mL1dL2 + Dox + IFNG: LC-MS value per protein co-immunoprecipitated with DUX4-CTD construct mL1dL2 in MB135 myoblasts
In short: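 FLAG-tagged DUX4-CTD expressed in doxycycline-induced MB135 myoblasts, some also IFNG-treated; nuclear lysates in pH 7.4 NP-40 IP buffer were pre-cleared, then anti-FLAG immunoprecipitated 3 h at 4 °C. For LC-MS, FLAG-peptide elution, in-gel trypsin digest, Orbitrap analysis; proteins with ≥2 PSMs in both experiments categorised and ranked by total PSMs.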

Row | Molecule | 4. + IFNG mix | 4. mL1dL2 + Dox + IFNG
1 | B1 | 7 | 10
2 | B2 | – | 1
3 | B3 | 10 | 11

From patent publication US20250339531A1, “DUX4 POLYPEPTIDES AND NUCLEIC ACIDS FOR TREATING INFLAMMATORY AND AUTOIMMUNE CONDITIONS” (Fred Hutchinson Cancer Center, priority 2021, published 2025)
